Assay results reported in publication PMC4135724 (Nature, 2014).

Molecular target: the molecule itself
Test: SEC

B1: Human E-Syt2 (residues 163-634), fragment comprising the SMP, C2A and C2B domains (domain or fragment, UniProt A0FGR8 191-662, looked up)
chain: DTERAEWLNKTVKHMWPFICQFIEKLFRETIEPAVRGANTHLSTFSFTKVDVGQQPLRINGVKVYTENVDKRQIILDLQISFVGNCEIDLEIKRYFCRAGVKSIQIHGTMRVILEPLIGDMPLVGALSIFFLRKPLLEINWTGLTNLLDVPGLNGLSDTIILDIISNYLVLPNRITVPLVSEVQIAQLRFPVPKGVLRIHFIEAQDLQGKDTYLKGLVKGKSDPYGIIRVGNQIFQSRVIKENLSPKWNEVYEALVYEHPGQELEIELFDEDPDKDDFLGSLMIDLIEVEKERLLDEWFTLDEVPKGKLHLRLEWLTLMPNASNLDKVLTDIKADKDQANDGLSSALLILYLDSARNLPSGKKISSNPNPVVQMSVGHKAQESKIRYKTNEPVWEENFTFFIHNPKRQDLEVEVRDEQHQCSLGNLKVPLSQLLTSEDMTVSQRFQLSNSGPNSTIKMKIALRVLHLEKRER
- stoichiometry N: 2
